Test [1] addresses FLMyo6 (T888D.Q892E.V903D) (human) (UniProt Q9UM54).
The target in test [2] is full-length wild-type Myo6, small insert isoform (FLMyo6 SI (WT)) (human) (UniProt Q9UM54).
Test [3] addresses Jo-Myo6-In heavy chain (Streptococcus pneumoniae | human). As to the kind of experiment: co-purification, SDS-PAGE; CaM co-expressed with Jo-Myo6-In in Sf9 cells, purified by the Flag tag of the heavy chain, read by SDS-PAGE.

Substance “FLMyo6 (T888D.Q892E.V903D) (from UniProt Q9UM54-5 1-1253; P0DP23 1-149) (complex)” registered a maximal actin-activated ATPase rate of FLMyo6 (T888D.Q892E.V903D) upon GIPC1 addition (loss of gating) in test [1] of 2 fold.

In test [2], “full-length wild-type Myo6, small insert isoform (FLMyo6 SI (WT)) (from UniProt Q9UM54-2 1-1262; P0DP23 1-149) (complex)” had a decrease in maximal actin-activated ATPase activity per Head of FLMyo6 (WT, no-insert isoform) upon addition of GIPC1, compared to monomeric MD^Ins2 (gating in a dimer) of 50%.

The substance “calmodulin (CaM) (from UniProt P0DP23 1-149) (natural protein)” had a stoichiometry N (CaM per heavy chain) in test [3] of 2.

The record behind these values is paper PMC10593786.
